Measurements: patent publication US20030204066A1 (published 2003)

What was measured:
[1] = molecular target: human tumor necrosis factor-α (TNFα) (human, UniProt P01375 77-233); test: cell-based or functional assay
human lymphotoxin (TNFβ) = molecular target: T1, human lymphotoxin (TNFβ) (human, UniProt P01374 35-205, limits assumed); test: cell-based or functional assay
T1 sequence (looked up): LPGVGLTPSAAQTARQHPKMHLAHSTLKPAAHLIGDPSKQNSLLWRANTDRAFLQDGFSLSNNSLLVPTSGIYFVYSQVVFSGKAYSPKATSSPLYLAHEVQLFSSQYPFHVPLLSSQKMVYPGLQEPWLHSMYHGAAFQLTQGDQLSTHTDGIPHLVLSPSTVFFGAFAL

human tumor necrosis factor-α (TNFα), sequence (P01375 77-233): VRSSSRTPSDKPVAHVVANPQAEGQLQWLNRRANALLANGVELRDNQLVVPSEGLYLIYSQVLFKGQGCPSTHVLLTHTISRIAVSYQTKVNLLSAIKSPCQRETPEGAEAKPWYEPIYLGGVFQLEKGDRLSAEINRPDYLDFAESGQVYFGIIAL

Binder | IC50 = concentration of fusion protein required to inhibit 2 ng/ml (39.2 pM) TNFα by 50% (WEHI 164 cytotoxicity) [1] [pM] | amount needed for the same inhibition of TNFβ cytotoxicity, against p75P-sf2 (human lymphotoxin (TNFβ))
p75P-sf2 (p75 amino acids 1-182 / IgG1 heavy chain fusion) (Fc fusion) chain 1: QLPAQVAFTPYAPEPGSTCRLREYYDQTAQMCCSKCSPGQHAKVFCTKTSDTVCDSCEDSTYTQLWNWVPECLSCGSRCSSDQVETQACTREQNRICTCRPGWYCALSKQEGCRLCAPLRKCRPGFGVARPGTETSDVVCKPCAPGTFSNTTSSTDICRPHQICNVVAIPGNASMDAVCTSTSGTLVTVSS chain 2: GTKLEIK | 70 | –
p75-sf2 (complete p75 extracellular domain / IgG1 heavy chain fusion) (Fc fusion) chain 1: QLPAQVAFTPYAPEPGSTCRLREYYDQTAQMCCSKCSPGQHAKVFCTKTSDTVCDSCEDSTYTQLWNWVPECLSCGSRCSSDQVETQACTREQNRICTCRPGWYCALSKQEGCRLCAPLRKCRPGFGVARPGTETSDVVCKPCAPGTFSNTTSSTDICRPHQICNVVAIPGNASMDAVCTSTSPTRSMAPGAVHLPQPVSTRSQHTQPTPEPSTAPSTSFLLPMGPSPPAEGSTGDGTLVTVSS chain 2: GTKLEIK | – | 3 fold (against p75P-sf2)
p55-sf2 (p55 TNF receptor / IgG1 heavy chain single fusion with truncated light chain JCK) (Fc fusion) chain 1: QVCPQGKYIHPQNNSICCTKCHKGTYLYNDCPGPGQDTDCRECESGSFTASENHLRHCLSCSKCRKEMGQVEISSCTVDRDTVCGCRKNQYRHYWSENLFQCFNCSLCLNGTVHLSCQEKQNTVCTCHAGFFLRENECVSCSNCKKSLECTKLCLPQIGTLVTVSS chain 2: GTKLEIK | 70 | –
p55-df2 (double fusion: p55 on both the IgG1 heavy chain and the kappa light chain) (Fc fusion) chain 1: QVCPQGKYIHPQNNSICCTKCHKGTYLYNDCPGPGQDTDCRECESGSFTASENHLRHCLSCSKCRKEMGQVEISSCTVDRDTVCGCRKNQYRHYWSENLFQCFNCSLCLNGTVHLSCQEKQNTVCTCHAGFFLRENECVSCSNCKKSLECTKLCLPQIGTLVTVSS chain 2: DSVCPQGKYIHPQNNSICCTKCHKGTYLYNDCPGPGQDTDCRECESGSFTASENHLRHCLSCSKCRKEMGQVEISSCTVDRDTVCGCRKNQYRHYWSENLFQCFNCSLCLNGTVHLSCQEKQNTVCTCHAGFFLRENECVSCSNCKKSLECTKLCLPQIGTKLEIK | 55 | –
